Test system: ERE (estrogen response element)
Assay: Reporter gene assay of ERRγ3 alone, ERE luciferase reporter in CV-1 cells
Format: cell-based, African green monkey
Conditions: ERRγ3 expression plasmid alone, FIG. 15
Experimental: In order to construct a reporter gene assay system for evaluation of the transcription-controlling activity of ERRγ3, a reporter plasmid into which ERE (estrogen response element) was inserted was prepared along with expression plasmids for ERRγ3 and ERRγ2, as follows: A reporter gene assay was performed by transfecting the reporter plasmid and expression plasmids into cultured cells by lipofection, followed by incubating the cells for a certain time, treating the cells with cell lysis solution, and measuring reporter activity with a luminometer using a Dual luciferase assay. […]
The transcription-controlling activity of ERRγ3 was evaluated using a reporter gene assay. […]
The reporter gene assay was performed using CV-1 cells (African green monkey kidney-derived cell line) as hosts. […] They were then exposed to 4-hydroxytamoxifen at different concentrations (0, 10^−10 to −10^−5 M) for 24 hours, whereupon luciferase activity within the cells was measured.
Transfection was performed as follows: CV-1 cells were suspended at 2×10^5 cells/2.5 ml in DMEM medium supplemented with 10% fetal bovine serum, 2000 U/l of penicillin G, and 100 mg/l streptomycin. […] 1 μg of each of the transcription factor expression plasmid, the luciferase reporter plasmid, and another luciferase reporter plasmid for normalizing the measured value (pRL-TK), were dissolved in Opti-MEM (Gibco BRL) to total of 150 μl. […]

B1: ERRγ3: novel ERRγ isoform, nuclear receptor protein of 396 amino acids (SEQ ID NO: 2) lacking part of the DNA binding domain (protein, listed as Homo sapiens)
chain: MSNKDRHIDSSCSSFIKTEPSSPASLTDSVNHHSPGGSSDASGSYSSTMNGHQNGLDSPPLYPSAPILGGSGPVRKLYDDCSSTIVEDPQTKCEYMLNSMPKRLCLVCGDIASGYHYGVASCEACKAFFKRTIQGVRLDRVRGGRQKYKRRIDAENSPYLNPQLAQPAKKPYNKIVSHLLVAEPEKIYAMPDPTVPDSDIKALTTLCDLADRELVVIIGWAKHIPGFSTLSLADQMSLLQSAWMEILILGVVYRSLSFEDELVYADDYIMDEDQSKLAGLLDLNNAILQLVKKYKSMKLEKEEFVTLKAIALANSDSMHIEDVEAVQKLQDVLHEALQDYEAGQHMEDPRRAGKMLMTLPLLRQTSTKAVQHFYNIKLEGKVPMHKLFLEMLEAKV
In the case of B1, the “transcription-controlling activity of ERRγ3 by itself” value is reported as “does not comprise the transcription-controlling activity”.

From US20060148030A1, “Nuclear receptor err y 3” (FUJISAWA PHARMACEUTICAL CO., LTD, priority 2002, published 2006)
